ChEMBL document CHEMBL4342470, “Detection of Active Granzyme A in NK92 Cells with Fluorescent Activity-Based Probe” (J Med Chem, 2020)

B1: Granzyme K (Homo sapiens), P49863 (protein)
chain: MTKFSSFSLFFLIVGAYMTHVCFNMEIIGGKEVSPHSRPFMASIQYGGHHVCGGVLIDPQWVLTAAHCQYRFTKGQSPTVVLGAHSLSKNEASKQTLEIKKFIPFSRVTSDPQSNDIMLVKLQTAAKLNKHVKMLHIRSKTSLRSGTKCKVTGWGATDPDSLRPSDTLREVTVTVLSRKLCNSQSYYNGDPFITKDMVCAGDAKGQKDSCKGDSGGPLICKGVFHAIVSGGHECGVATKPGIYTLLTKKYQTWIKSNLVPPHTN
B2: Granzyme A (Homo sapiens), P12544 (protein)
chain: MRNSYRFLASSLSVVVSLLLIPEDVCEKIIGGNEVTPHSRPYMVLLSLDRKTICAGALIAKDWVLTAAHCNLNKRSQVILGAHSITREEPTKQIMLVKKEFPYPCYDPATREGDLKLLQLMEKAKINKYVTILHLPKKGDDVKPGTMCQVAGWGRTHNSASWSDTLREVNITIIDRKVCNDRNHYNFNPVIGMNMVCAGSLRGGRDSCNGDSGSPLLCEGVFRGVTSFGLENKCGDPRGPGVYILLSKKHLNWIIMTIKGAV

Columns and labels:
Conditions in all cases: Homo sapiens; call rule not given here
[1] = substrate: CC(=O)N1Cc2ccccc2C[C@H]1C(=O)NCC(=O)N1C2CCCCC2C[C@H]1C(=O)N[C@@H](CCCNC(=N)N)C(=O)Nc1ccc2c(CC(N)=O)cc(=O)oc2c1; test: Substrate activity at Granzyme K (unknown origin) expressed in Pichia pastoris incubated for 30 mins by fluorescence based assay
[2] = substrate: CC(=O)N1Cc2ccccc2C[C@H]1C(=O)NCC(=O)N1C2CCCCC2C[C@H]1C(=O)N[C@@H](CCCNC(=N)N)C(=O)Nc1ccc2c(CC(N)=O)cc(=O)oc2c1; test: (§1) Substrate activity at Granzyme A (unknown origin) expressed in Pichia pastoris incubated for 30 mins by fluorescence based assay
[3] = substrate: CC[C@H](C)[C@H](NC(C)=O)C(=O)NCC(=O)N1CCC[C@H]1C(=O)N[C@@H](CCCNC(=N)N)C(=O)Nc1ccc2c(CC(N)=O)cc(=O)oc2c1; test: as §1

| Protein | Km [1] | kcat [1] | kcat/Km [1] | Km [2] | kcat [2] | kcat/Km [2] | Km [3] | kcat [3] | kcat/Km [3] |
| --- | --- | --- | --- | --- | --- | --- | --- | --- | --- |
| B1 | Not Active | Not Active | Not Active | – | – | – | – | – | – |
| B2 | – | – | – | 87.4 µM | 0.27 s⁻¹ | 3100 M⁻¹ s⁻¹ | 450 µM | 0.035 s⁻¹ | 78 M⁻¹ s⁻¹ |
